Data on two molecules can be found in patent US20210147829A1, “VARIANT NUCLEOTIDE LIBRARY” (The University of Manchester, priority 2017, published 2021).

For data set [1] the following is noted: cited from earlier work; for kcat, substrate AMBA: Table 3.
Data set [2] in a line: Liquid phase kinetic assay of purified MAO-N variants, substrate butylamine. Type of data set: biochemical. How it is done:
(§1) Selected variants were overexpressed by BL21 (DE3) E. coli strain in 700 mL of LB medium with 100 μg mL^−1 ampicillin. 0.5 mM of IPTG was introduced to the culture when OD600 reached 0.6 and the culture was incubated at 25° C., 180 rpm. Cells were harvested after 16-20 hours and purified using 5 mL Histrap FF crude column (GE Healthcare) with an AKTA Explorer 100 protein purification system as described (55).
(§2) A range of amine stock solutions including α-methylbenzylamine, N-amylamine, butylamine, benzylamine or cyclohexylamine (all from Sigma) were prepared in 0.1 M potassium phosphate pH 7.7. The final concentration range of the substrate was between 0.5 mM to 100 mM. A colourimetric assay solution was made up by dissolving Pyrogallol red (0.3 mM final concentration) in 0.1 M potassium phosphate, pH 7.7. The assay was conducted by combining 35 μL of substrate solution, 50 μL of Pyrogallol red solution and 5 μL of horseradish peroxidase (1 mg mL^−1) in a flat bottom 96-well plate and started by adding 110 μL of purified MAO-N. Assay progress was monitored at 550 nm at 25° C. in a Molecular Devices Spectramex M2 plate reader. The data were analysed using Prism7 (GraphPad) which was also used to calculate kinetic parameters such as kcat, km and Vmax.

Data set [3] can be described thus: MAO-N variant activity to native primary amine substrates (taken together). Type of data set: biochemical. Particulars: range over native substrates. As for the experimental part:
as §1, §2

Data set [4] in a line: Liquid phase kinetic assay of purified MAO-N variants, substrate N-amylamine. It counts as biochemical. How it is done:
as §1, §2

A short description of data set [5]: Liquid phase kinetic assay of purified MAO-N variants, substrate benzylamine. Type of data set: biochemical. How it is done: as §1, §2
A short description of data set [6]: Liquid phase kinetic assay of purified MAO-N variants, substrate α-methylbenzylamine. Type of data set: biochemical. The settings on record: Table 4; kcat for α-methylbenzylamine. As for the experimental part:
as §1, §2

The mark [7] stands for this setting: Table 4, α-methylbenzylamine, Reference {Alexeeva 2002}.

B1: WT: Wild type monoamine oxidase-N (MAO-N, A. niger), an amine-oxidising biocatalyst (protein, UniProt P46882 1-495, looked up)
Monoamine oxidase N: MTSRDGYQWTPETGLTQGVPSLGVISPPTNIEDTDKDGPWDVIVIGGGYCGLTATRDLTVAGFKTLLLEARDRIGGRSWSSNIDGYPYEMGGTWVHWHQSHVWREITRYKMHNALSPSFNFSRGVNHFQLRTNPTTSTYMTHEAEDELLRSALHKFTNVDGTNGRTVLPFPHDMFYVPEFRKYDEMSYSERIDQIRDELSLNERSSLEAFILLCSGGTLENSSFGEFLHWWAMSGYTYQGCMDCLISYKFKDGQSAFARRFWEEAAGTGRLGYVFGCPVRSVVNERDAARVTARDGREFAAKRLVCTIPLNVLSTIQFSPALSTERISAMQAGHVNMCTKVHAEVDNKDMRSWTGIAYPFNKLCYAIGDGTTPAGNTHLVCFGTDANHIQPDEDVRETLKAVGQLAPGTFGVKRLVFHNWVKDEFAKGAWFFSRPGMVSECLQGLREKHRGVVFANSDWALGWRSFIDGAIEEGTRAARVVLEELGTKREVKARL
The term kcat denotes the maximal rate divided by the concentration of active sites. For the molecule B1, the “kcat, substrate AMBA” value in data set [1] (Reference {Alexeeva 2002}) was 0.00283 s⁻¹. Further, the kcat in data set [1] (setting [7]) was 0.00283 s⁻¹. In addition, the “kcat towards α-MBA” value in data set [1] (wild type, literature value) was 0.00283 s⁻¹. Further, the “kcat, substrate BTA” value in data set [2] (Table 3) worked out at 6.57 s⁻¹. Besides, in data set [2] (Table 5), the “kcat Butylamine (BTA)” value is 6.57 s⁻¹. In data set [3], the “kcat for several primary amine substrates ('wild type speed')” value lay within 4.37 to 6.57 s⁻¹. In addition, the “kcat, substrate AA” value in data set [4] (Table 3) stood at 6.45 s⁻¹. The “kcat N-amylamine (AA)” value in data set [4] (Table 5) is 6.45 s⁻¹. Also, the “kcat, substrate BZA” value in data set [5] (Table 3) was determined as 4.37 s⁻¹. Moreover, the “kcat Benzylamine (BZA)” value in data set [5] (Table 5) was found to be 4.37 s⁻¹.

B2: D1 N336S: MAO-N variant D1 with mutation N336S, Reference {Alexeeva 2002} (protein, UniProt P46882 1-495, looked up, variant N336S)
Monoamine oxidase N: MTSRDGYQWTPETGLTQGVPSLGVISPPTNIEDTDKDGPWDVIVIGGGYCGLTATRDLTVAGFKTLLLEARDRIGGRSWSSNIDGYPYEMGGTWVHWHQSHVWREITRYKMHNALSPSFNFSRGVNHFQLRTNPTTSTYMTHEAEDELLRSALHKFTNVDGTNGRTVLPFPHDMFYVPEFRKYDEMSYSERIDQIRDELSLNERSSLEAFILLCSGGTLENSSFGEFLHWWAMSGYTYQGCMDCLISYKFKDGQSAFARRFWEEAAGTGRLGYVFGCPVRSVVNERDAARVTARDGREFAAKRLVCTIPLNVLSTIQFSPALSTERISAMQAGHVSMCTKVHAEVDNKDMRSWTGIAYPFNKLCYAIGDGTTPAGNTHLVCFGTDANHIQPDEDVRETLKAVGQLAPGTFGVKRLVFHNWVKDEFAKGAWFFSRPGMVSECLQGLREKHRGVVFANSDWALGWRSFIDGAIEEGTRAARVVLEELGTKREVKARL
Broadly, the Km is the concentration of substrate that gives half-maximal velocity. For B2, the “kcat, substrate AMBA” value in data set [1] (Reference {Alexeeva 2002}) was 0.133 s⁻¹. Moreover, in data set [1] (setting [7]), the Michaelis constant (Km) was 400 µM and the kcat is 0.133 s⁻¹. In data set [6], the “Improvement over wild type” value was 40-fold.
